These results are taken from publication PMC10319729 (2023).

Test [1] has as its target T1, LGR5ΔCT (human LGR5 without the cytoplasmic C-terminal tail) on HEK293 cells (human, UniProt O75473 22-907).
T1 chain: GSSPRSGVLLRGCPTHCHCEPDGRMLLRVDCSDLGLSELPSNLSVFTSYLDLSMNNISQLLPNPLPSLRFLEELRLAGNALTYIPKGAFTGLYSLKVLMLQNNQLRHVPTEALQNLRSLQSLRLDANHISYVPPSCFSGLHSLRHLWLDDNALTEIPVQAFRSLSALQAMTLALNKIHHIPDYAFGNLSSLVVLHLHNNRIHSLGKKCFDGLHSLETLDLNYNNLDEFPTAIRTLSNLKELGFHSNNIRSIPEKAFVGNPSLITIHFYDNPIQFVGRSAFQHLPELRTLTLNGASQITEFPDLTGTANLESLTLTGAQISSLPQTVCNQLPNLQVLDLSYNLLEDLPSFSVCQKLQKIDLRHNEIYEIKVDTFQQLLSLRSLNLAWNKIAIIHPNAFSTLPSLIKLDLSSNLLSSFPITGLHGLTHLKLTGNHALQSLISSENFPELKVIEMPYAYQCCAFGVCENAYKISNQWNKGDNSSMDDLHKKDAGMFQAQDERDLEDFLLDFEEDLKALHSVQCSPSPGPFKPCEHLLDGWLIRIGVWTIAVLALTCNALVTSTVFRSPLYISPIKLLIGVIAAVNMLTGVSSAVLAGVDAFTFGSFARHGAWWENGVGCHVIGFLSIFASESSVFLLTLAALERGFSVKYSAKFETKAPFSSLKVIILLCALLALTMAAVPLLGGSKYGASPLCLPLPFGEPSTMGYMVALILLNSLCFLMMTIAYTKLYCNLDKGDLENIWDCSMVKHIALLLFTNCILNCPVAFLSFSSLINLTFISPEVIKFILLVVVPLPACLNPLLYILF

In test [2] the target is LGR4 (HA-LGR4) over-expressed on HEK293 cells (UniProt Q9BXB1 25-951).

B1: R2Fu-mFc (RSPO2 furin domain fused to monomeric human IgG4-Fc, monovalent) (Fc fusion)
chain: NPICKGCLSCSKDNGCSRCQQKLFFFLRREGMRQYGECLHSCPSGYYGHRAPDMNRCARCRIENCDSCFSKDFCTKCKVGFYLHRGRCFDECPDGFAPLEETMECVE
By Kd is commonly meant the constant that tells how readily two partners part at equilibrium. A high value points to weaker binding. The molecule B1 gave a dissociation constant (Kd) in test [1] of 2.3 nM.

B2: R2Fu-bFc (RSPO2 furin domain fused to wild-type IgG1-Fc, bivalent) (Fc fusion)
chain: NPICKGCLSCSKDNGCSRCQQKLFFFLRREGMRQYGECLHSCPSGYYGHRAPDMNRCARCRIENCDSCFSKDFCTKCKVGFYLHRGRCFDECPDGFAPLEETMECVE
With B2, the Kd in test [1] is 1.8 nM; in test [2] it was 9 nM.
